B1: ClpP2(S98A) from Listeria monocytogenes (natural protein)
chain: not shown
B2: ClpX(E183Q) from Listeria monocytogenes (natural protein)
chain: not shown

Legend:
cryo-EM structure = target: the molecule itself; assay: cryo-EM structure
[1] = target: B2; assay: HDX-MS

Row | Binder | stoichiometry N (cryo-EM structure) | binding result [1]
1 | B1 | 7 | binds
2 | B2 | 6 | 

— article PMC6783313 (Nature structural & molecular biology, 2019)
